Assay results reported in paper PMC3320582, “Group A Streptococcus Secreted Esterase Hydrolyzes Platelet-Activating Factor to Impede Neutrophil Recruitment and Facilitate Innate Immune Evasion” (PLoS Pathogens, 2012).

Substrate: [H][C@@](COCCCCCCCCCCCCCCCC)(COP(=O)([O-])OCC[N+](C)(C)C)SC(C)=O
Assay: purified protein
Assay type: biochemical, Homo sapiens
Conditions: PAF acetylhydrolase assay kit; measured as comparison to SsE

B1: human recombinant plasma PAF acetylhydrolase (Homo sapiens) (protein)
chain: FDWQYINPVAHMKSSAWVNKIQVLMAAASFGQTKIPRGNGPYSVGCTDLMFDHTNKGTFLRLYYPSQDNDRLDTLWIPNKEYFWGLSKFLGTHWLMGNILRLLFGSMTTPANWNSPLRPGEKYPLVVFSHGLGAFRTLYSAIGIDLASHGFIVAAVEHRDRSASATYYFKDQSAAEIGDKSWLYLRTLKQEEETHIRNEQVRQRAKECSQALSLILDIDHGKPVKNALDLKFDMEQLKDSIDREKIAVIGHSFGGATVIQTLSEDQRFRCGIALDAWMFPLGDEVYSRIPQPLFFINSEYFQYPANIIKMKKCYSPDKERKMITIRGSVHQNFADFTFATGKIIGHMLKLKGDIDSNVAIDLSNKASLAFLQKHLGLHKDFDQWDCLIEGDDENLIPGTNINTTNQHIMLQNSSGIEKYN
notes: commercial recombinant protein (Cayman Chemical)
Work on B1 yielded a Km of 8.0 µM and a kcat of 15.4 s⁻¹.
